According to a protein production outcome set (Wang et al. 2014):

Assay: label from the status in PepcDB records

Row | Sequence | protein production
1 | MIYWGMGMLVIAWLADGGISRLSDLIKEPLALGVLLFCGVWVLGLLWSDSAVIFQGKWRKYFILLTFIPLFSLLSRERLPWVTGALLCSYLGMVILGSYQWAMQEMQGISLLGMSYLHYSAALGIGVILAVFLGWETLSREKRWLSVLSWLIAILLLFLQFNQSARGILLATLMALLLMIVLRYRAEWRMLTGGLTAIMAMVILFATSSDIFHDRLQQAGTDLRSFQQGDYQTSVGYRLAMWDVGLHGIAEHPLLGHGSGMAKKYFDDSIITYKQGIYRNLPEFQETAHFHNELIEIGMHLGLLGILAFVFLLWCWFQIFRQNRMALLGSAIVCFICISGLTDTFLLYSGTPPFLLTVTAIAVCWRKYREDPDRIGQKYTSGERNGNQNPQMFLMSA | failed
2 | MKAESSNESFIIGQRVHSLNDSRRVGTVKYVGDVEGYSGTWIGVDWDQDGDGKHNGSVNGVFYFNGRSQSSASFVRSQNLSRGITLLQALELRYRTISTKDEEDEMYVLSAGNRRVSIQLLGGDKIQDKLSRFEELTSASLSYLGVSSLGVSSDLGSILPNLKLLDLTGNLISDWEEIGALCEQLPALTTLNLSCNSLSSDIKSLPQLKNIRVLVLNNSGLSWTQVEILRRSLPGIEELHLMGNMISTITSTSSSDDQAFNSLRLLNLDDNCISDWSEVLKLSQLPCLEQLYLNKNKLSRIFQSVNGTESSEKGSDPFPSLSCLLLGANNIGDLASVDALNGFPQLVDIRLSENPISDPVRGGVPRFVLVARLTKVQVLNGSEVRAREKKDSEIRYVRMVMSKLNDKSGEIELLHPRFYELKKLHGIEDERASAENSGPKNIASGLISITLKCVGPSMGEKPHLTKKLPGSITVGKLKILSENFFKLKSIKPRLFLQEEGSPFPTALDDETATLLDVGICDGSTLLVDEES | failed
3 | MKAGLIMRHDVMSILHAFCMIAENHSFTRAAAQLHISTSALSQNMRQLEDELGVKLLNRTTRRVGLTEAGHAFLASIRPALAHIDEAMEHARQSRDIPGGTLRLTVPRTAATLLLQPNLAGFMRDYPDIRLDIDVNDGFVDLINERFDAGIRFGDAVQLDMNVVPLGDVLRPAIVASPAYLARFGTPLHPQELINHRCLCHRFTRESGLYRWEFVHGAQRLEITPEAALMVNDKALRLSAARDGAGLTYVFEQDVHEDLQDGRLCSVLEEWLPAADRFYLYYPGRAHMAPKLRVFIDYFCHKAILPSQQSHHR | failed
4 | MKALMVFMTTAENGSFSDAARKLGVSPAAISQSIARLEQELEVRLFNRTTRQLTLTEDGRRFYAQCRGPVNNLDSAINQLKASRDEPAGHLRVSMPNSFGRRFILPIMGEFCERYPKVRVFFGLDDHFSDLIEDGYDVGVRTGMMPDSRMVARNLAQMPLYVVASPEYWDQHGRPSSPEELSGYDCINFQFPTSGRLFKWEFDRKGERIPLEVNGTYTLNDMEAVAELARLGMGVAQLPGHEVVHLIRSGELEPVLTDMVSLERSIYICFPHRDHIAPRTRVFVDFVVEKLADHPDIMADLPGLDLSAKRSALQQSVGVL | failed
5 | MKANFGYITPVPLNMELIDISLSKTQKRTPTVIHPQYNIVKIRMFYMRKVKHAGNEFASRLGTILTDFPRIEDIHPFYGDLINVLYDRDHYKLALGHVNAAKNGIEKVSKEFVKLLKFADSLYRCKQLKRAALGRMASAAKKLGKTLEYLEEVRMHMSRLPSIDLSGRTLLVCGFPNVGKSSFVRKISRADVEVQPYPFTTKSLYVGHFDYKYLQWQVIDTPGILDQPLENRNTIEMLSITALAHIKAVVLYFIDLSETCGYSVEEQMDLFNTLNPLLSSNMVIVLSKSDVLGLSGMEDKKAIMSFLEGKKYMEMSCEKEENIDAVKAMACDLLLDERFERKINSERLSEYINRITIVRPKELREKAESFICSREVTEIENEQERYLIPEEYRYDIVPEIVDGKNVADFFDPDIEKKLKEVEEEEEGLLPMYCKTYDVLSPEERALKEEVVAGIERRRIINRLREKKRLPDSWKHRSRNSGGDIAVHVRRDSKTQVAQPPRLPSKKKARFDDKHYYDRKPKHLYRGRK | failed
6 | MKAQYFFWILFLIGFYWMIYLYQDFLMDALIAGLLCVGFFQVKVFLDKRFFNVVSSFLCVLILASVLIVPLYFIVYKSSNIIFEINFEKFSALIKWLKGIITENLSHFPTIHDGASKFLENFSAASITGYLLKISSYVGRYSLKLITDALFILGLLFFFFYYGERFYRYFLGVLPLGMNQSKKIFEEVAGILRIVLLTSLITVILEGVAFGVMIVWFGHDGWSLGILYGLASLVPAVGGALIWIPIAIYELYHGNVNEAIFIALYSILLISVLIDSVIKPILIVFIKKRIFKTTLKINEMLIFFSMIAGISQFGFWGIIVGPTITAFFIALLRLYENYFIQNEQKACE | failed
7 | MKAYPYIFLLLISSSLAASQEDKLYEAARSALNDNKYSEALIHVKNILKISPEHLASNILIAEILLADGSASAAEASLTKAVSLGANKKQLRLLFAESYIMQGQYNKTLDYLPEQTNDDKLAAKIYVLRGDAHLGLRQLKLSQNDYNTALAFDAKNIDAKLGLAQIAVNYFQFHQAEKLVDEVLSGYIPPIKAWNLKASIQQSLGNNELALNAINQALLIDKNNIQSLIFASTINIELQQFELAEKYADTVLEQVPNEPKAEFIKAMVQVRKNENAGFESAIETVAQVLDHLSEDVLRSNPSYYYLASIILFHQQKHEAARQYIDDYLLIDENNINALTLAATIELVEKKPMQAKTLLSRANFLDPDNPKILSMLGMTYLELRQYEKAHFYLAKVKELKPNLGIADTQLAQSYLATGKPEKAIKHLLTASAAEYDPTVVGLLLVESYIKSGKMNKGISVAKNLAENMPDNANIQHHLGYIYQISGEIEKAKHQFEQALIIEPNHAKSIISLANLDYQKGNADIAIDRLKAALIISANDIDLITALAKFYNRTNNSAASVILLEEPFKLDNQNEELLKNLIVSYVGDKQLMLAIETLNTYLLNQRKTVELYLMLASLQIMNSDVNSAVSAYKSAIKQDGDKGTIYLLIAHAYQRFSKVPEAITAYKKSMAWDGDNDKAIIGLAQLYNAENDTDSAIKLIKSFEVNHQLSAQLVEVLANSYLRINQYKLAEMYYKKRIKLASNDSSVVGLNLIYRATKRTSKAVDLLTTSLNDRPNSLFLNTALAELYIDQSQWLNADKIYQTLVQLYPKQPAILNNASYVALNLSDYPRAEALVKRSLALVDNQPDSLDTLGWVYYHTKEFNKALPLFRKALAINNSNPAVKYHLALTLKALNRDKEAIKLMVDVVNSDYSQKADADVLLKQWLK | failed
8 | MKDAKSFNDLYKASIYTMLGSIYAPSGGVIAAPTTSLPEVEGGKRNWDYRFAWVRDSSIIAEALLEAGSIVEARRIINFLLSLINFSSKPFYYPLYTIEGTIPPPERELRWLSGYKNSKPVRIGNGASSQIQLDIEGFFISALYKYVKMTNDQVFLKDVFSKVKYIGDWISENWSLKDSGIWEDRGSPQHYTHSKIMMWIALDKIGKLANLIGYADIWAKEREKLRNWIFTNCVKNNYFIRYCGNTDDVDSSLLSAPLYGFIEVSDSTFINTLTKIENDLKTDVFVKRYKTDFMGEAKHPFLLTTVWLARVYMRLGKIDSAIEILNKINKVSRELHLVGEHVDVEKGEFTGNFPQIFVHAQLVIAIKELNDTLEHHHHHH | failed
9 | MKDFFKDQFFKALEKNTIFSRADVQGNLIFVSDKLCQISGYSKKELIGKKHSIFKHPDVEECYIEELLKKLSYKKPYQVIFKNIDKLGKTFYLETLLIPILDKNNELIEIVAFSHDVSNSFKLNEELALNHAKLRELSINLENTVKNHQQEFIQLGKKFEKKMQIALEKNEKDIKIAYEEILKSSLEQMISDIAHQWRQPLNELGIAMFQMKQNLKDEKGFAEIYSQSKDMIKNMSETIDVFRTLFNKGVEQCVFIKETLNKALEIAFETIEKNHVNINIVSKSDYEVLAYENGLIRVFLNLILNSIEAFKNKKRKIITINFSKFGKNYLKITIKDNAGGIDKENLDKIFQPYFTTKHPSQGIGVGLYISRQIIESFQGKIKVKNGKDGACFEIFLKLKERVE | failed
10 | MKDISLKDKITQGINDLFYIWKREFRTTFRDQGVLIFFVLVPLVYPLIYSFIYTNEVVREVPAVVVDDSRSSLSREYLRKVDATPDIQIVAYCADMEEAKQMLKDRLAYGIIYIPKDFSSDIAQGKQTQVSIYCDMSGLLYYKSMLLANTAVSLDMNENIKIARSGNTTDRQDEITAYPIEYEDVAMFNPTNGFAAFLIPAVLILIIQQTLLLGIGLSAGTARENNRFKDLVPINRHYNGTLRIVLGKGLSYFMVYALVSVYVLCAVPRMFSLNQIGQPGTLALFILPYLMACIFFAMTASIAIRNRETCMLIFVFTSVPLLFISGISWPGAAIPPFWKYFSYIFPSTFGINGFVRINNMGATLSEIPFEYKALWIQTGFYFLTTCWVYRWQIIKSRKHVIDKYKEMKNKGKEFFS | failed
